Results: US12723255B2, “Herbicide tolerance genes and methods of use thereof” (priority 2014, dated 2026)
Like-named read-outs stand apart in the source and are kept apart here.

Columns and labels:
[1] = kinetic analysis, non-endpoint assay at 23° C.; type: biochemical
Summary of the method: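 Purified C-terminal 6-His-tagged recombinant enzymes expressed in bacteria; quizalofop-P or 2,4-D as substrate. Vmax reported as specific activity (umol herbicide product mg enzyme-1 min-1) and Km as mM herbicide substrate, with standard error.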

F1 hybrid maize plants [2] = assay: efficacy field trial for quizalofop-P tolerance and clethodim sensitivity; type: in vivo; conditions: for average injury rating, V4 Growth Stage, 4x Quizalofop / average injury rating, V8 Growth Stage, 4x Quizalofop / average injury rating, V4 Growth Stage, 8x Quizalofop / average injury rating, V8 Growth Stage, 8x Quizalofop / average injury rating, V4 Growth Stage, 16x Quizalofop / average injury rating, V8 Growth Stage, 16x Quizalofop / average injury rating, V8 Growth Stage, 1x Clethodim: scale 0 to 100; for average injury rating, V4 Growth Stage, 4x Quizalofop / average injury rating, V8 Growth Stage, 4x Quizalofop: 0.32 lb ai/acre at VE-V2, V4, V8; for average injury rating, V4 Growth Stage, 4x Quizalofop / average injury rating, V8 Growth Stage, 4x Quizalofop / average injury rating, V4 Growth Stage, 8x Quizalofop / average injury rating, V8 Growth Stage, 8x Quizalofop / average injury rating, V4 Growth Stage, 16x Quizalofop / average injury rating, V8 Growth Stage, 16x Quizalofop: with CTP unless label says no CTP; for average injury rating, V4 Growth Stage, 8x Quizalofop / average injury rating, V8 Growth Stage, 8x Quizalofop: 0.64 lb ai/acre at VE-V2, V4, V8; for average injury rating, V4 Growth Stage, 16x Quizalofop / average injury rating, V8 Growth Stage, 16x Quizalofop: 1.28 lb ai/acre at VE-V2, V4, V8; for average injury rating, V8 Growth Stage, 1x Clethodim: clethodim 0.25 lb ai/acre at V8, volunteer control; for tolerance to the quizalofop-P application: 1.28 lb ai/acre (16×)
Procedure: (§1) Separate trait efficacy field trials for quizalofop-P and 2,4-D were conducted at two locations cach with F1 hybrid transgenic plants produced by crossing an inbred plant containing maize event MON89034 with an R1 plant containing MON-HT55 (with a CTP), MON-HTI (with or without a CTP), MON-HT2 (with or without a CTP), MON-HT3 (with a CTP), MON-HT4 (with a CTP), MON-HT5 (with a CTP), MON-HT6 (with a CTP), or MON-HT7 (with a CTP). Transgenic F1 hybrid plants containing maize events NK603×MON89034 were used for comparison as a control.
In the efficacy field trial for quizalofop-P tolerance and clethodim sensitivity, one of four herbicide treatments was used: (1) quizalofop-P (Assure II) at 0.32 lb ai/acre (4×) plus 0.25% v/v non-ionic surfactant (NIS) applied at VE-V2 growth stage followed by the same at V4 growth stage followed by the same at V8 growth stage; (2) quizalofop-P at 0.64 lb ai/acre (8×) plus 0.25% v/v NIS applied at VE to V2 growth stage followed by the same at V4 growth stage followed by the same at V8 growth stage; (3) quizalofop-P at 1.28 lb ai/acre (16×) plus 0.25% v/v NIS applied at VE to V2 growth stage followed by the same at V4 growth stage followed by the same at V8growth stage; or (4) clethodim at 0.25 lb ai/acre (1×) plus 0.25% v/v NIS applied at V8 growth stage. Plots were visually rated 10-14 days after application for crop injury on a scale of 0 to 100with “0” being none and “100” being complete crop destruction. Tables 14 and 15 show the average injury ratings after herbicide application at V4 or V8 growth stage, respectively.

[3] = enzyme activity assay at 23° C. with purified enzyme; type: biochemical; conditions: wild-type set at 100%
Procedure: The enzyme activity of MON-HT protein variants with haloxyfop, fenoxaprop, fluazifop, and dichlorprop as substrates was determined using the enzyme activity assay conducted at 23° C. with purified enzyme. The activity was recorded as the maximum activity as a percentage of the wild-type enzyme's activity, which was set at 100%.

F1 hybrid maize plants [4] = assay: efficacy field trial for 2,4-D tolerance; type: in vivo; conditions: for average injury rating, V4 Growth Stage, 2x 2,4-D / average injury rating, V8 Growth Stage, 2x 2,4-D / average injury rating, V4 Growth Stage, 4x 2,4-D / average injury rating, V8 Growth Stage, 4x 2,4-D / average injury rating, V4 Growth Stage, 8x 2,4-D / average injury rating, V8 Growth Stage, 8x 2,4-D / average injury rating, V4 Growth Stage, 16x 2,4-D / average injury rating, V8 Growth Stage, 16x 2,4-D: scale 0 to 100, with CTP unless label says no CTP; for average injury rating, V4 Growth Stage, 2x 2,4-D / average injury rating, V8 Growth Stage, 2x 2,4-D: 2 lb ae/acre at VE-V2, V4, V8; for average injury rating, V4 Growth Stage, 4x 2,4-D / average injury rating, V8 Growth Stage, 4x 2,4-D: 4 lb ae/acre at VE-V2, V4, V8; for average injury rating, V4 Growth Stage, 8x 2,4-D / average injury rating, V8 Growth Stage, 8x 2,4-D: 8 lb ae/acre at VE-V2, V4, V8; for average injury rating, V4 Growth Stage, 16x 2,4-D / average injury rating, V8 Growth Stage, 16x 2,4-D: 16 lb ae/acre at VE-V2, V4, V8
Procedure: as §1
In the efficacy field trial for 2,4-D tolerance, one of four herbicide treatments was used: (1) 2,4-D amine at 2 lb ac/acre (2×) plus 0.25% v/v non-ionic surfactant (NIS) applied to VE to V2 followed by V4 followed by V8; (2) 2,4-D amine at 4 lb ac/acre (4×) plus 0.25% v/v NIS applied to VE to V2 followed by V4 followed by V8; (3) 2,4-D amine at 8 lb ac/acre (8×) plus 0.25% v/v NIS applied to VE to V2 followed by V4 followed by V8 maize; or (4) 2,4-D amine at 16 lb ac/acre (16×) plus 0.25% v/v NIS applied to VE to V2 followed by V4 followed by V8. Plots were visually rated as above. Tables 14 and 15 show the average injury ratings after herbicide application at V4 or V8 growth stage, respectively.

[5] = 23° C., purified His-tagged protein, standard error in parenthetical
[6] = 23° C., purified His-tagged protein, standard error in parenthetical, read-out: Km Quizalofop
[7] = standard error in parenthetical, NDB = activity not robust enough for kinetic characterization
[8] = standard error in parenthetical, NDB = activity not robust enough for kinetic characterization, read-out: Km 2,4-D

B1: MON-HT1: engineered oxygenase protein, amino acid sequence SEQ ID NO:14 (protein)
chain: MHAALTPLTNKYRFIDVQPLTGVLGAEITGVDLREPLDDSTWNEILDAFHTYQVIYFPGQAITNEQHIAFSRRFGPVDPVPILKSIEGYPEVQMIRREANESSRFIGDDWHTDSTFLDAPPAAVVMRAIEVPEYGGDTGFLSMYSAWETLSPTMQATIEGLNVVHSATKVFGSLYQATNWRFSNTSVKVMDVDAGDRETVHPLVVTHPVTGRRALYCNQVYCQKIQGMTDAESKSLLQFLYEHATKFDFTCRVRWKKDQVLVWDNLCTMHRAVPDYAGKFRYLTRTTVAGDKPSR
[1]
  Vmax for 2,4-D higher than that of the wild-type enzyme: 9.5 fold
[1]; 23° C.
  Vmax for quizalofop-P relative to the wild-type enzyme: about half
[1]; [5]
  Vmax Quizalofop: 0.76 (−0.04) umol herbicide product mg enzyme-1 min-1
[1]; [6]
  Km: 170 µM
[1]; Table 10 series, unit as defined
  Vmax 2,4-D: 1.17 (0.01) umol herbicide product mg enzyme-1 min-1
[1]; Table 10 series, unit as defined, read-out: Km 2,4-D
  Km: 30 µM
[1]; Table 10 series, 23° C., unit as defined
  Vmax Quizalofop: 1.62 (0.05) umol herbicide product mg enzyme-1 min-1
[1]; Table 10 series, 23° C., unit as defined, read-out: Km Quizalofop
  Km: 120 µM
[1]; [7]
  Vmax 2,4-D: 0.95 (−0.03) umol herbicide product mg enzyme-1 min-1
[1]; [8]
  Km: 30 µM
F1 hybrid maize plants [2]
  average injury rating, V4 Growth Stage, 4x Quizalofop: 0.0
  average injury rating, V8 Growth Stage, 4x Quizalofop: 2.0
  average injury rating, V4 Growth Stage, 8x Quizalofop: 0.8
  average injury rating, V8 Growth Stage, 8x Quizalofop: 2.0
  average injury rating, V4 Growth Stage, 16x Quizalofop: 4.5
  average injury rating, V8 Growth Stage, 16x Quizalofop: 5.5
  average injury rating, V8 Growth Stage, 1x Clethodim: 93.3
F1 hybrid maize plants [2]; listed as MON-HT1 (no CTP)
  average injury rating, V4 Growth Stage, 4x Quizalofop: 5.8
  average injury rating, V8 Growth Stage, 4x Quizalofop: 3.3
  average injury rating, V4 Growth Stage, 8x Quizalofop: 11.3
  average injury rating, V8 Growth Stage, 8x Quizalofop: 7.5
  average injury rating, V4 Growth Stage, 16x Quizalofop: 18.8
  average injury rating, V8 Growth Stage, 16x Quizalofop: 16.3
  average injury rating, V8 Growth Stage, 1x Clethodim: 94.5
[3]
  maximum activity as a percentage of the wild-type enzyme's activity, Fluazifop: 67%
F1 hybrid maize plants [4]
  average injury rating, V4 Growth Stage, 2x 2,4-D: 0.0
  average injury rating, V8 Growth Stage, 2x 2,4-D: 1.3
  average injury rating, V4 Growth Stage, 4x 2,4-D: 0.0
  average injury rating, V8 Growth Stage, 4x 2,4-D: 1.5
  average injury rating, V4 Growth Stage, 8x 2,4-D: 5.0
  average injury rating, V8 Growth Stage, 8x 2,4-D: 8.3
  average injury rating, V4 Growth Stage, 16x 2,4-D: 6.3
  average injury rating, V8 Growth Stage, 16x 2,4-D: 16.3
F1 hybrid maize plants [4]; listed as MON-HT1 (no CTP)
  average injury rating, V8 Growth Stage, 2x 2,4-D: 2.5
  average injury rating, V8 Growth Stage, 4x 2,4-D: 4.0
  average injury rating, V4 Growth Stage, 8x 2,4-D: 5.8
  average injury rating, V8 Growth Stage, 8x 2,4-D: 8.8
  average injury rating, V4 Growth Stage, 16x 2,4-D: 12.5
  average injury rating, V8 Growth Stage, 16x 2,4-D: 13.8

B2: MON-HT2: engineered oxygenase protein, amino acid sequence SEQ ID NO:18 (protein)
chain: MHAALTPLTNKYRFIDVQPLTGVLGAEITGVDLREPLDDSTWNEILDAFHTYQVIYFPGQAITNEQHIAFSRRFGPVDPVPLLKSIEGYPEVQMIRREANESSRVIGDDWHSDSTFLDAPPAAVVMRAIEVPEYGGDTGFLSMYSAWETLSPTMQATIEGLNVVHSATKVFGSLYQATNWRFSNTSVKVMDVDAGDRETVHPLVVTHPVTGRRALYCNQVYCQKIQGMTDAESKSLLQFLYEHATKFDFTCRVRWKKDQVLVWDNLCTMHRAAPDYAGKFRYLTRTTVAGDKPSR
[1]; [5]
  Vmax Quizalofop: 1.41 (−0.11) umol herbicide product mg enzyme-1 min-1
[1]; [6]
  Km: 410 µM
[1]; [7]
  Vmax 2,4-D: 0.23 (−0.01) umol herbicide product mg enzyme-1 min-1
[1]; [8]
  Km: 40 µM
F1 hybrid maize plants [2]; operably linked to a CTP, FIG. 5A
  tolerance to the quizalofop-P application: robust tolerance
F1 hybrid maize plants [2]
  average injury rating, V4 Growth Stage, 4x Quizalofop: 1.5
  average injury rating, V8 Growth Stage, 4x Quizalofop: 2.5
  average injury rating, V4 Growth Stage, 8x Quizalofop: 0.8
  average injury rating, V8 Growth Stage, 8x Quizalofop: 3.8
  average injury rating, V4 Growth Stage, 16x Quizalofop: 10.0
  average injury rating, V8 Growth Stage, 16x Quizalofop: 4.8
  average injury rating, V8 Growth Stage, 1x Clethodim: 93.3
F1 hybrid maize plants [2]; listed as MON-HT2 (no CTP)
  average injury rating, V4 Growth Stage, 4x Quizalofop: 42.5
  average injury rating, V8 Growth Stage, 4x Quizalofop: 16.3
  average injury rating, V4 Growth Stage, 8x Quizalofop: 76.3
  average injury rating, V8 Growth Stage, 8x Quizalofop: 52.5
  average injury rating, V4 Growth Stage, 16x Quizalofop: 82.5
  average injury rating, V8 Growth Stage, 16x Quizalofop: 77.5
  average injury rating, V8 Growth Stage, 1x Clethodim: 92.0
F1 hybrid maize plants [2]; without a CTP, FIG. 5B
  tolerance to the quizalofop-P application: moderate to poor tolerance
[3]
  maximum activity as a percentage of the wild-type enzyme's activity, Dichlorprop: 92%
F1 hybrid maize plants [4]
  average injury rating, V4 Growth Stage, 2x 2,4-D: 1.3
  average injury rating, V8 Growth Stage, 2x 2,4-D: 2.5
  average injury rating, V4 Growth Stage, 4x 2,4-D: 0.0
  average injury rating, V8 Growth Stage, 4x 2,4-D: 3.3
  average injury rating, V4 Growth Stage, 8x 2,4-D: 4.5
  average injury rating, V8 Growth Stage, 8x 2,4-D: 10.0
  average injury rating, V4 Growth Stage, 16x 2,4-D: 7.5
  average injury rating, V8 Growth Stage, 16x 2,4-D: 15.0
F1 hybrid maize plants [4]; listed as MON-HT2 (no CTP)
  average injury rating, V8 Growth Stage, 2x 2,4-D: 5.0
  average injury rating, V4 Growth Stage, 4x 2,4-D: 2.5
  average injury rating, V8 Growth Stage, 4x 2,4-D: 8.8
  average injury rating, V4 Growth Stage, 8x 2,4-D: 13.8
  average injury rating, V8 Growth Stage, 8x 2,4-D: 13.8
  average injury rating, V4 Growth Stage, 16x 2,4-D: 21.3
  average injury rating, V8 Growth Stage, 16x 2,4-D: 25.0
F1 hybrid maize plants [4]; without the CTP
  injury rating after 2,4-D application at V4 growth stage at 8×: 13.75%
  injury rating after 2,4-D application at V4 growth stage at 16×: 21.25%
